{
  "source": "patent US10087231B2",
  "about": "“Substitution mutant receptors and their use in an ecdysone receptor-based inducible gene expression system” (Intrexon Corporation, priority 2001, dated 2018)",
  "key": {"[1]": {"test_system": "GAL4/CfEcR-DEF and pFRLuc in NIH3T3 cells", "type": "cell-based, mouse", "details": "0.04-25 μM GS™-E (FIG. 4)", "description": "(§1) The resulting PCR nucleic acid products encoding the mutant RXR ligand binding domains were then each fused to a VP16 transactivation domain as described in Examples 1.3 and 1.6 above. The VP16/mutant RXR receptor constructs were tested for activity by transfecting them into NIH3T3 cells along with GAL4/CfEcR-DEF and pFRLuc in the presence of non-steroid ligand.\n(§2) DNAs corresponding to the various switch constructs outlined in Example 1.1-1.6 were transfected into mouse NIH3T3 cells (ATCC) as follows. Standard methods for culture and maintenance of the cells were followed. […] Superfect™ (Qiagen Inc.) was used as the transfection reagent. For 12-well plates, 4 μl of Superfect™ was mixed with 100 μl of growth medium. One μg of reporter construct and 0.25 μg of each receptor construct of the receptor pair to be analyzed were added to the transfection mix. […] The cells were harvested and reporter activity was assayed.\nCells were harvested 40 hours after adding ligand. […] Twenty μl of lysate were assayed. […]\nThe cells were harvested and reporter activity was assayed as described above.\nAs discussed above, a CfEcR-based gene regulation system is ligand dependent when RXRs are used as the heterodimeric partner and ligand independent when USPs are used as the heterodimeric partner. However, reporter gene expression is induced at very high levels when CfUSP is used as the heterodimeric partner. To improve RXR as heterodimeric partner, Applicants have aligned the polypeptide sequences of several USP and RXR ligand binding domains (domains EF) and identified amino acid residues that are different between these two nuclear receptor family members. In particular, Applicants identified residues that are conserved in all USPs but are different in RXRs and mutated these residues in HsRXRβ. […] The cells were harvested and reporter activity was assayed as described above."}, "[2]": {"test_system": "GAL4/CfEcR-DEF and pFRLuc in NIH3T3 cells", "assay": "Reporter gene transactivation of VP16/mutant MmRXRα-EF with GAL4/CfEcR-DEF and pFRLuc, GS™-E ligand", "type": "cell-based, mouse", "details": "for induction levels / sensitivity to non-steroid ligand: NIH3T3 cells, 0.2, 1 and 10 μM GS™-E; for background levels in the absence of ligand: NIH3T3 cells, VP16/MmRXRα-EF mutant + GAL4/CfEcR-DEF + pFRLuc, no ligand (DMSO)", "description": "as §1, §2\nCells were harvested 40 hours after adding ligand. […] Twenty μl of lysate were assayed.\nDNAs corresponding to the various switch constructs outlined in Example 1, specifically switches 1.1-1.4, were transfected into mouse NIH3T3 cells (ATCC) as follows. […] Two μl of Superfect™ was mixed with 100 μl of growth medium and 50 ng of GAL4/CfEcR-DEF cassette, 50 ng of: VP16/LmUSP-EF, VP16/wild-typeMmRXRα-EF, VP16/MmRXRα-LmUSPchimera-EF, or VP16/mutantMmRXRα-EF, and 200 ng of pFRLuc were added to the transfection mix. […] The cells were harvested and reporter activity was assayed as described above."}},
  "note": "Entries after “also recorded” stand apart in the source; their conditions may differ.",
  "data": [
    {"molecule": "M431L: HsRXRβ ligand binding domain substitution mutant (SEQ ID NO: 2) (protein, listed as Homo sapiens) MSWAARPPFLPQRHAAGQCGPVGVRKEMHCGVASRWRRRRPWLDPAAAAAAAVAGGEQQTPEPEPGEAGRDGMGDSGRDSRSPDSSSPNPLPQGVPPPSPPGPPLPPSTAPSLGGSGAPPPPPMPPPPLGSPFPVISSSMGSPGLPPPAPPGFSGPVSSPQINSTVSLPGGGSGPPEDVKPPVLGVRGLHCPPPPGGPGAGKRLCAICGDRSSGKHYGVYSCEGCKGFFKRTIRKDLTYSCRDNKDCTVDKRQRNRCQYCRYQKCLATGMKREAVQEERQRGKDKDGDGEGAGGAPEEMPVDRILEAELAVEQKSDQGVEGPGGTGGSGSSPNDPVTNICQAADKQLFTLVEWAKRIPHFSSLPLDDQVILLRAGWNELLIASFSHRSIDVRDGILLATGLHVHRNSAHSAGVGAIFDRVLTELVSKMRDLRMDKTELGCLRAIILFNPDAKGLSNPSEVEVLREKVYASLETYCKQKYPEQQGRFAKLLLRLPALRSIGLKCLEHLFFFKLIGDTPIDTFLMEMLEAPHQLA", "values": [
      {"measurement": "transactivation activity", "setting": "[1]", "result": "essentially eliminated transactivation activity"}
    ]},
    {"molecule": "E401D: MmRXRα ligand binding domain substitution mutant, glutamic acid to aspartic acid at 401 of SEQ ID NO: 1, fused to VP16 (protein) MGPKKKRKVAPPTDVSLGDELHLDGEDVAMAHADALDDFDLDMLGDGDSPGPGFTPHDSAPYGALDMADFEFEQMFTDALGIDEYGGEFPANEDMPVEKILEAELAVEPKTETYVEANMGLNPSSPNDPVTNICQAADKQLFTLVEWAKRIPHFSELPLDDQVILLRAGWNELLIASFSHRSIAVKDGILLATGLHVHRNSAHSAGVGAIFDRVLTELVSKMRDMQMDKTELGCLRAIVLFNPDSKGLSNPAEVEALREKVYASLDAYCKHKYPEQPGRFAKLLLRLPALRSIGLKCLEHLFFFKLIGDTPIDTFLMEMLEAPHQAT", "values": [
      {"measurement": "induction levels", "setting": "[2]", "result": "higher induction levels"},
      {"measurement": "sensitivity to non-steroid ligand", "setting": "[2]", "result": "increased sensitivity to a non-steroid ligand"},
      {"measurement": "background levels in the absence of ligand", "setting": "[2]", "result": "higher background"}
    ]},
    {"molecule": "G429S: MmRXRα ligand binding domain substitution mutant, glycine to serine at 429 of SEQ ID NO: 1, fused to VP16 (protein) MGPKKKRKVAPPTDVSLGDELHLDGEDVAMAHADALDDFDLDMLGDGDSPGPGFTPHDSAPYGALDMADFEFEQMFTDALGIDEYGGEFPANEDMPVEKILEAELAVEPKTETYVEANMGLNPSSPNDPVTNICQAADKQLFTLVEWAKRIPHFSELPLDDQVILLRAGWNELLIASFSHRSIAVKDGILLATGLHVHRNSAHSAGVGAIFDRVLTELVSKMRDMQMDKTELGCLRAIVLFNPDSKGLSNPAEVEALREKVYASLEAYCKHKYPEQPGRFAKLLLRLPALRSISLKCLEHLFFFKLIGDTPIDTFLMEMLEAPHQAT", "values": [
      {"measurement": "sensitivity to non-steroid ligand", "setting": "[2]", "result": "increased sensitivity to a non-steroid ligand; also recorded: increased sensitivity to ligand"},
      {"measurement": "background levels in the absence of ligand", "setting": "[2]", "result": "less background"}
    ]},
    {"molecule": "E401D/G429S: double substitution mutant MmRXRα-EF with E401D and G429S; three independent clones analyzed (protein) MGPKKKRKVAPPTDVSLGDELHLDGEDVAMAHADALDDFDLDMLGDGDSPGPGFTPHDSAPYGALDMADFEFEQMFTDALGIDEYGGEFPANEDMPVEKILEAELAVEPKTETYVEANMGLNPSSPNDPVTNICQAADKQLFTLVEWAKRIPHFSELPLDDQVILLRAGWNELLIASFSHRSIAVKDGILLATGLHVHRNSAHSAGVGAIFDRVLTELVSKMRDMQMDKTELGCLRAIVLFNPDSKGLSNPAEVEALREKVYASLDAYCKHKYPEQPGRFAKLLLRLPALRSISLKCLEHLFFFKLIGDTPIDTFLMEMLEAPHQAT", "values": [
      {"measurement": "induction levels", "setting": "[2]", "result": "increased induction levels"},
      {"measurement": "sensitivity to non-steroid ligand", "setting": "[2]", "result": "increased induction levels and ligand sensitivity"},
      {"measurement": "performance compared with chimeric vertebrate RXR/invertebrate RXR", "setting": "[2]; NIH3T3 cells, 0.2, 1 and 10 μM GS™-E (FIG. 2)", "result": "work as well as the chimeric RXR"},
      {"measurement": "background levels in the absence of ligand", "setting": "[2]", "result": "low background levels"}
    ]}
  ]
}
